From paper PMC11484706

Legend:
Assay in all cases: PU-beads capture (affinity pull-down), immunoblot band quantification
Details in all cases: HEK293 cells transfected with the mutant; n = 3; input = 2% of protein incubated with the beads; read off a plot
[1] = molecular target: AHA1 (endogenous, HEK293)
HOP (endogenous, HEK293) = molecular target: HOP (endogenous, HEK293)
[2] = molecular target: HSP110 (endogenous, HEK293)
[3] = molecular target: PU-beads (PU-H71 epichaperome affinity probe)

Substance: mCherry WT HSP90β (HEK293) S226A; S255A
- response (normalized to MDA-MB-468) [1]: 0.65
- response (normalized to MDA-MB-468) (HOP (endogenous, HEK293)): 0.25
- response (normalized to MDA-MB-468) [2]: 0.63
- response (normalized to MDA-MB-468) [3]: 0.65
